Measured values reported in patent publication US20180072798A1.

What was measured:
[1] = biological target: DENV-1 virus particle, strain 05K2916 (167), live (dengue virus serotype 1 (DENV-1), strain 05K2916); assay: cell-based or functional assay
[2] = biological target: DENV-2 virus particle, strain TSV01, live (dengue virus serotype 2 (DENV-2), strain TSV01); assay: cell-based or functional assay
[3] = biological target: DENV-3 virus, strain VN32/96 (dengue virus serotype 3 (DENV-3), strain VN32/96); assay: cell-based or functional assay
[4] = biological target: DENV-4 virus particle, strain 2641Y08, live (dengue virus serotype 4 (DENV-4), strain 2641Y08); assay: cell-based or functional assay
[5] = biological target: DENV-2 (TSV01) E protein mutant E49A, soluble part, V5 tag, from S2 cells (dengue virus serotype 2 (DENV-2), strain TSV01); assay: sandwich ELISA, V5-tagged soluble E captured by anti-V5
[6] = biological target: DENV-2 (TSV01) E protein mutant F108A, soluble part, V5 tag, from S2 cells (dengue virus serotype 2 (DENV-2), strain TSV01); assay: as above
[7] = biological target: DENV-2 (TSV01) E protein mutant G100A, soluble part, V5 tag, from S2 cells (dengue virus serotype 2 (DENV-2), strain TSV01); assay: as above
[8] = biological target: DENV-2 (TSV01) E protein mutant K295A, soluble part, V5 tag, from S2 cells (dengue virus serotype 2 (DENV-2), strain TSV01); assay: as above
[9] = biological target: DENV-2 (TSV01) E protein mutant K64A, soluble part, V5 tag, from S2 cells (dengue virus serotype 2 (DENV-2), strain TSV01); assay: as above
[10] = biological target: DENV-2 (TSV01) E protein mutant N134A, soluble part, V5 tag, from S2 cells (dengue virus serotype 2 (DENV-2), strain TSV01); assay: as above
[11] = biological target: DENV-2 (TSV01) E protein mutant N153A, soluble part, V5 tag, from S2 cells (dengue virus serotype 2 (DENV-2), strain TSV01); assay: as above
[12] = biological target: DENV-2 (TSV01) E protein mutant N203A, soluble part, V5 tag, from S2 cells (dengue virus serotype 2 (DENV-2), strain TSV01); assay: as above
[13] = biological target: DENV-2 (TSV01) E protein mutant Q167A, soluble part, V5 tag, from S2 cells (dengue virus serotype 2 (DENV-2), strain TSV01); assay: as above
[14] = biological target: DENV-2 (TSV01) E protein mutant Q77A, soluble part, V5 tag, from S2 cells (dengue virus serotype 2 (DENV-2), strain TSV01); assay: as above
[15] = biological target: DENV-2 (TSV01) E protein mutant R323A, soluble part, V5 tag, from S2 cells (dengue virus serotype 2 (DENV-2), strain TSV01); assay: as above
[16] = biological target: DENV-2 (TSV01) E protein mutant S169A, soluble part, V5 tag, from S2 cells (dengue virus serotype 2 (DENV-2), strain TSV01); assay: as above
[17] = biological target: DENV-2 (TSV01) E protein mutant S274A, soluble part, V5 tag, from S2 cells (dengue virus serotype 2 (DENV-2), strain TSV01); assay: as above
[18] = biological target: DENV-2 (TSV01) E protein mutant T155A, soluble part, V5 tag, from S2 cells (dengue virus serotype 2 (DENV-2), strain TSV01); assay: as above
[19] = biological target: DENV-2 (TSV01) E protein mutant W101A, soluble part, V5 tag, from S2 cells (dengue virus serotype 2 (DENV-2), strain TSV01); assay: as above
[20] = biological target: DENV-2 (TSV01) wildtype E protein, full length, expressed with prM in HEK293 cells (dengue virus serotype 2 (DENV-2), strain TSV01); assay: flow cytometry on transfected HEK293 cells; the reference itself
[21] = biological target: DENV-2 (TSV01) wildtype E protein, soluble part, V5 tag, from S2 cells (dengue virus serotype 2 (DENV-2), strain TSV01); assay: sandwich ELISA, V5-tagged soluble E captured by anti-V5; the reference itself
[22] = biological target: DENV-2 (TSV01) E protein mutant E161A, full length, expressed with prM in HEK293 cells (dengue virus serotype 2 (DENV-2), strain TSV01); assay: flow cytometry on transfected HEK293 cells, normalised to 3H5 staining and to wt
[23] = biological target: DENV-2 (TSV01) E protein mutant E202A, full length, expressed with prM in HEK293 cells (dengue virus serotype 2 (DENV-2), strain TSV01); assay: as above
[24] = biological target: DENV-2 (TSV01) E protein mutant E49A, full length, expressed with prM in HEK293 cells (dengue virus serotype 2 (DENV-2), strain TSV01); assay: as above
[25] = biological target: DENV-2 (TSV01) E protein mutant F392A, full length, expressed with prM in HEK293 cells (dengue virus serotype 2 (DENV-2), strain TSV01); assay: as above
[26] = biological target: DENV-2 (TSV01) E protein mutant I162A, full length, expressed with prM in HEK293 cells (dengue virus serotype 2 (DENV-2), strain TSV01); assay: as above
[27] = biological target: DENV-2 (TSV01) E protein mutant K122A, full length, expressed with prM in HEK293 cells (dengue virus serotype 2 (DENV-2), strain TSV01); assay: as above
[28] = biological target: DENV-2 (TSV01) E protein mutant K295A, full length, expressed with prM in HEK293 cells (dengue virus serotype 2 (DENV-2), strain TSV01); assay: as above
[29] = biological target: DENV-2 (TSV01) E protein mutant K310A, full length, expressed with prM in HEK293 cells (dengue virus serotype 2 (DENV-2), strain TSV01); assay: as above
[30] = biological target: DENV-2 (TSV01) E protein mutant N134A, full length, expressed with prM in HEK293 cells (dengue virus serotype 2 (DENV-2), strain TSV01); assay: as above
[31] = biological target: DENV-2 (TSV01) E protein mutant N153A, full length, expressed with prM in HEK293 cells (dengue virus serotype 2 (DENV-2), strain TSV01); assay: as above
[32] = biological target: DENV-2 (TSV01) E protein mutant N203A, full length, expressed with prM in HEK293 cells (dengue virus serotype 2 (DENV-2), strain TSV01); assay: as above
[33] = biological target: DENV-2 (TSV01) E protein mutant Q200A, full length, expressed with prM in HEK293 cells (dengue virus serotype 2 (DENV-2), strain TSV01); assay: as above
[34] = biological target: DENV-2 (TSV01) E protein mutant Q77A, full length, expressed with prM in HEK293 cells (dengue virus serotype 2 (DENV-2), strain TSV01); assay: as above
[35] = biological target: DENV-2 (TSV01) E protein mutant R323A, full length, expressed with prM in HEK293 cells (dengue virus serotype 2 (DENV-2), strain TSV01); assay: as above
[36] = biological target: DENV-2 (TSV01) E protein mutant S169A, full length, expressed with prM in HEK293 cells (dengue virus serotype 2 (DENV-2), strain TSV01); assay: as above
[37] = biological target: DENV-2 (TSV01) E protein mutant T155A, full length, expressed with prM in HEK293 cells (dengue virus serotype 2 (DENV-2), strain TSV01); assay: as above
[38] = biological target: DENV-2 (TSV01) E protein mutant W101A, full length, expressed with prM in HEK293 cells (dengue virus serotype 2 (DENV-2), strain TSV01); assay: as above
[39] = biological target: DENV-2 (TSV01) E protein mutant W391A, full length, expressed with prM in HEK293 cells (dengue virus serotype 2 (DENV-2), strain TSV01); assay: as above

B1: 3C H5L1 antibody (antibody, V domains shown)
VH: EVQLVQSGPDVEKPGASVKVSCKASGYTFTSNYIHWVRQAPGQGLEWMGVINPRGGSTASAQKFQGRITMTRDTSTSTVYMELSSLRSDDTAVYYCARGGRALFYDSYTTPRDGGSWWFDPWGQGSLVTVSS
VL: DIQLTQSPSSLSASVGDRVTFTCQASQDIRKYLNWYQQKPGKAPKLLIYDASNLKTGVPSRFSGSGSGTDFTFTISSLQPEDVATYYCQQFDDLPITFGQGTRLQIK
EC50, plaque reduction neutralization test (PRNT) on BHK-21 cells [1]: 0.6 µg/mL
EC50, plaque reduction neutralization test (PRNT) on BHK-21 cells [2]: 0.001 µg/mL
EC50, plaque reduction neutralization test (PRNT) on BHK-21 cells [3]: 0.5 µg/mL
EC50, plaque reduction neutralization test (PRNT) on BHK-21 cells [4]: 0.07 µg/mL
relative binding (normalised to wt E protein) (ratio to wt E protein) [5]: 0.695
relative binding (normalised to wt E protein) (ratio to wt E protein) [6]: 0.806
relative binding (normalised to wt E protein) (ratio to wt E protein) [7]: 0.186
relative binding (normalised to wt E protein) (ratio to wt E protein) [8]: 0.189
relative binding (normalised to wt E protein) (ratio to wt E protein) [9]: 0.444
relative binding (normalised to wt E protein) (ratio to wt E protein) [10]: 0.221
relative binding (normalised to wt E protein) (ratio to wt E protein) [11]: 0.806
relative binding (normalised to wt E protein) (ratio to wt E protein) [12]: 0.72
relative binding (normalised to wt E protein) (ratio to wt E protein) [13]: 0.774
relative binding (normalised to wt E protein) (ratio to wt E protein) [14]: 0.747
relative binding (normalised to wt E protein) (ratio to wt E protein) [15]: 0.334
relative binding (normalised to wt E protein) (ratio to wt E protein) [16]: 0.784
relative binding (normalised to wt E protein) (ratio to wt E protein) [17]: 0.0859
relative binding (normalised to wt E protein) (ratio to wt E protein) [18]: 0.839
relative binding (normalised to wt E protein) (ratio to wt E protein) [19]: 0.242
relative binding (normalised to wt E protein) (ratio to wt E protein) [20]: 1
relative binding (normalised to wt E protein) (ratio to wt E protein) [21]: 1
relative binding (normalised to wt E protein) (ratio to wt E protein) [22]: 1.07
relative binding (normalised to wt E protein) (ratio to wt E protein) [23]: 2.02
relative binding (normalised to wt E protein) (ratio to wt E protein) [24]: 0.996
relative binding (normalised to wt E protein) (ratio to wt E protein) [25]: 0.133
relative binding (normalised to wt E protein) (ratio to wt E protein) [26]: 0.242
relative binding (normalised to wt E protein) (ratio to wt E protein) [27]: 0.27
relative binding (normalised to wt E protein) (ratio to wt E protein) [28]: 1.04
relative binding (normalised to wt E protein) (ratio to wt E protein) [29]: 0.15
relative binding (normalised to wt E protein) (ratio to wt E protein) [30]: 1.08
relative binding (normalised to wt E protein) (ratio to wt E protein) [31]: 0.535
relative binding (normalised to wt E protein) (ratio to wt E protein) [32]: 0.719
relative binding (normalised to wt E protein) (ratio to wt E protein) [33]: 0.394
relative binding (normalised to wt E protein) (ratio to wt E protein) [34]: 0.38
relative binding (normalised to wt E protein) (ratio to wt E protein) [35]: 0.416
relative binding (normalised to wt E protein) (ratio to wt E protein) [36]: 0.963
relative binding (normalised to wt E protein) (ratio to wt E protein) [37]: 0.621
relative binding (normalised to wt E protein) (ratio to wt E protein) [38]: 0.165
relative binding (normalised to wt E protein) (ratio to wt E protein) [39]: 0.144
